Substitutions are numbered along the chain they refer to.
B1: Nanobody 13D1 (VHH)
VHH: EVQLVESGGGLVQPGGSLRLSCATSGFTEDYYVIGWFRQAPGKEREGVSCMSSSGDSTTYADSVKGRFTISRDNAKNMVYLQMTSLKPEDTAVYYCAADFALGCYSGSYYPRYDYWGQGTQVTVSS
notes: also called PMP13D1; PRSV13D1
B2: Nanobody 13B4 (VHH)
VHH: EVQLVESGGGLVQAGGSLRLSCAASGFTFDDYAIGWFRQAPGKEREAVSCISSSDGSTYYADSVKGRFTISSDNAKNMVYLQMNSLKPEDTAVYYCAADLLRTAVGCLDYRGTYYPRTTMDYRGKGTLVTVSS
notes: also called PMP13B4; PRSV13B4
B3: Nanobody 8A1 (VHH)
VHH: EVQLVESGGGLVQPGGSLRVSCAASGFTFNDYIMGWFRQAPGKERMFIAAISGTGTIKYYGDLVRGRFTISRDNAKNTVYLRIDSLNPEDTAVYYCAARQDYGLGYRESHEYDYWGQGTQVTVSS
notes: also called PMP8A1; PRSV8A1
B4: Nanobody 13E12 (VHH)
VHH: EVQLVESGGGLVQAGGSLRLSCAASGRTFSRYIMGWFRQAPGKEREFVGAISRSGDITSFADFVKGRFTMSRDNAKNTLYLQMNSLEPEDTAVYSCAANSDTYYIYSDIVVPERYDYWGQGTQVTVSS
notes: also called PMP13E12; PRSV13E12
B5: Nanobody 1B2 (VHH)
VHH: EVQLVESGGGLVQAGGSLRLSCAASGPTFSADTMGWFRQAPGKEREFVATIPWSGGIAYYSDSVKGRFTMSRDNAKNTVDLQMNSLKPEDTALYYCAGSSRIYIYSDSLSERSYDYWGQGTQVTVSS
notes: c-myc/His6-tagged; also called PMP1B2; PRSV1B2
B6: Nanobody 1A2 (VHH)
VHH: EVQLVESGGGLVQAGGSLRLSCAASERTFSYYAMGWFRQAPGKEREFVATISRSGEWIYYKDAMKGRFTISRDNANNAVYLQMNSLQPEDTAIYYCAADSLGGFRSASDYYNTNTYAYWGQGTQVTVSS
notes: also called PMP1A2; PRSV1A2
B7: Nanobody 13C1 (VHH)
VHH: EVQLVESGGGLVQPGGSLRLSCEASGFTWDYYVIGWFRQAPGKEREGLSCISSDGSTTYADSVKGRFTISRDNAKNTVYLQMNSLEPEDTAVYYCATDPALGCYSGSYYPRYDYWGQGTQVTVSS
notes: also called PMP13C1; PRSV13C1
B8: Nanobody 13A1 (VHH)
VHH: EVQLVESGGGLVQPGGSLRLSCAASGLTLDYYALGWFRQAPGKEREGVSCISSADHSTTYADSVKGRFTISWDNAKNTVYLQMNSLKPEDTAVYYCAADPALGCYSGNYYPRYDYWGQGTQVTVSS
notes: also called PMP13A1; PRSV13A1
B9: Nanobody 19E2 (VHH)
VHH: B8 VHH with A54S, S57T, A61T, V79L, N108S, Y115F
notes: also called PMP19E2; PRSV19E2
B10: Nanobody 23E5 (VHH)
VHH: EVQLMESGGGLVQAGGSLRLSCAASGGTFSSYAMGWFRQAPGEERDFVAAIGWSGNSPYYAQFVKGRFTISRDNAKNTVHLQMNSLKPEDTAVYYCAAAHNTMGSDYEGYDYWGQGTQVTVSS
notes: also called PMP23E5; PRSV23E5
B11: Nanobody 1A6 (VHH)
VHH: EVQLVESGGGLVQAGGSLRLSCAASGRTFSSYAMGWFRQAPGKEREFVAAIWWSGGSTYYADSVKGRFTMSRDNAKNTVYLEMNNLKPEDTAVYYCAADTDSSNSGSYLYTWAYDYWGQGTQVTVSS
notes: also called PMP1A6; PRSV1A6
B12: Nanobody 1E4 (VHH)
VHH: EVQLVESGGGLVQAGGSLRLSCEASGRTFSSYGMGWFRQAPGKEREFVAAVSRLSGPRTVYADSVKGRFTISRDNAENTVYLQMNSLKPEDTAVYTCAAELTNRNPGAYYYTWAYDYWGQGTQVTVSS
notes: also called PMP1E4; PRSV1E4
B13: Nanobody 20B2 (VHH)
VHH: B12 VHH with G33D, S52T, L54W, P57A, T59G, Y81H, E100D, L101S, P106S, Y109V
notes: also called PMP20B2; PR5V20B2
B14: Nanobody 1G8 (VHH)
VHH: EVQLVESGGGSVQAGGSLRLSCAASGGSFNRFGMGWFRRAPGKERDFVAAINLSGDTTYYVDSVQGRFTISRDNANNIMYLQMNLLKPEDTADYYCAADPDPITAWKQSGAGMDYWGKGTQVTVSS
notes: also called PMP1G8; PRSV1G8
B15: Nanobody 20C1 (VHH)
VHH: EVQLVESGGGLVQAGGSLRLSCAASGRTFSSFAMGWFRQAPGKEREFVAAISWSGGSTYYADSVKGRFTISGDNAKNTMYLQMNSLKPEDTAVYYCAADSEILNSGAYYYPWAYVYWGQGTQVTVSS
notes: also called PMP20C1; PRSV20C1
B16: Nanobody 8B10 (VHH)
VHH: EVQLVESGGGLVQAGASLRLSCAASGLAFSRYAMGWFRQAPGKERESVAAISSSGDNIYYADSVKGQFTMSRDNAKSSVYLQMINLKPEDTAVYYCAATSPLFVASDYFEASRYGYWGQGTQVTVSS
notes: also called PMP8B10; PRSV8B10

Biological target: T1, hRSV FTM-NN (membrane anchorless form of the Long fusion protein, 70 kDa) (human respiratory syncytial virus, …, UniProt P12568 26-524)
T1 construct: also called FTM-NN (Long); hRSV FTM-protein
Experiment: competition ELISA on FTM-NN, competitor 101F Fab, purified Nanobody

Point of comparison: B4, IC50 3.52 nM. Against it:
- B1 — within 1.5-fold, 3.37 nM
- B2 — within 1.5-fold, 3.69 nM
- B3 — within 1.5-fold, 2.81 nM
- B5 — within 1.5-fold, 2.91 nM
- B6 — within 1.5-fold, 2.9 nM
- B7 — within 1.5-fold, 3.83 nM
- B8 — within 1.5-fold, 4.23 nM
- B9 — within 1.5-fold, 2.93 nM
- B10 — 2-fold lower, 1.73 nM

Biological target: T2, protein F of hRSV strain B-1 (on RSV B-1-infected Hep2 cells and on virus) (human respiratory syncytial virus, …, UniProt P13843 26-574)
Experiment: cell-based or functional assay

B11 and B12 cannot be ordered by “micro-neutralization of RSV B-1” value: > 10 µM for the first, > 10 µM for the second.

B13 and B14 cannot be ordered by “micro-neutralization of RSV B-1” value: > 10 µM for the first, > 10 µM for the second.

With B15 the “micro-neutralization of RSV B-1” value was > 10 µM.

Biological target: T2, protein F of hRSV strain B-1 (on RSV …)
Experiment: cell ELISA on RSV B-1-infected Hep2 cells, periplasmic extract 1:200

Point of comparison: B6, “Binding Hep2-B-1 (% control) 1:200 PE” value 66 % control. Against it:
- B1 — higher, 75 % control
- B2 — lower, 56 % control
- B3 — higher, 92 % control
- B4 — higher, 75 % control
- B5 — higher, 85 % control
- B7 — higher, 86 % control
- B8 — lower, 65 % control
- B9 — lower, 58 % control
- B11 — lower, 39 % control
- B12 — lower, 55 % control
- B13 — lower, 32 % control
- B16 — higher, 84 % control
- B14 — lower, 43 % control
- B15 — lower, 35 % control
- B10 — higher, 82 % control

Biological target: T2, protein F of hRSV strain B-1 (on RSV …)
Experiment: cell ELISA on RSV B-1-infected Hep2 cells, periplasmic extract 1:50

Point of comparison: B5, “Binding Hep2-B-1 (% control) 1:50 PE” value 88 % control. Against it:
- B1 — higher, 93 % control
- B2 — lower, 75 % control
- B3 — higher, 98 % control
- B4 — higher, 97 % control
- B6 — lower, 86 % control
- B7 — higher, 104 % control
- B8 — lower, 84 % control
- B9 — lower, 87 % control
- B11 — lower, 57 % control
- B12 — lower, 55 % control
- B13 — lower, 32 % control
- B16 — higher, 94 % control
- B14 — lower, 73 % control
- B15 — lower, 37 % control
- B10 — higher, 103 % control

Biological target: T2, protein F of hRSV strain B-1 (on RSV …)
Experiment: cell-based or functional assay
Remark: another data set of the same source

Point of comparison: B7, “Neutralization B-1 IC50” value 11400 nM. Against it:
- B1 — 1.9-fold lower, 5850 nM
- B2 — higher, > 15000 nM
- B3 — within 1.5-fold, 12200 nM
- B4 — within 1.5-fold, 12300 nM
- B5 — 1.5-fold lower, 7380 nM
- B6 — within 1.5-fold, 13700 nM
- B8 — 1.9-fold lower, 6160 nM
- B9 — 2.5-fold lower, 4550 nM
- B11 — not separable, > 10000 nM
- B12 — not separable, > 10000 nM
- B13 — not separable, > 10000 nM
- B16 — higher, > 15000 nM
- B14 — not separable, > 10000 nM
- B15 — not separable, > 10000 nM
- B10 — higher, > 15000 nM

Biological target: protein F of hRSV strain Long, on virus (inactivated hRSV Long, Hytest #8RSV79; RSV Long LM-2, ATCC VR-26) (human respiratory syncytial virus, …, UniProt P12568 26-574)
Experiment: cell-based or functional assay

Point of comparison: B11, “Neutralization Long IC50” value 4500 nM. Against it:
- B13 — 2.6-fold lower, 1760 nM
- B14 — 2.2-fold higher, 10000 nM
- B15 — within 1.5-fold, 5290 nM

Biological target: T1, hRSV FTM-NN (membrane anchorless form …)
Experiment: SPR (Biacore), FTM-NN amine-coupled on CM5 chip, 1:1 Langmuir fit

Point of comparison: B4, Kd 1.5 nM. Against it:
- B5 — 3.4-fold lower, 0.44 nM
- B8 — 2.5-fold lower, 0.61 nM
- B9 — 2.9-fold lower, 0.52 nM
- B10 — 5.3-fold higher, 7.9 nM

Point of comparison: B8, koff 0.00035 s⁻¹. Against it:
- B4 — 2.2-fold lower, 0.00016 s⁻¹
- B5 — 2.1-fold lower, 0.00017 s⁻¹
- B9 — within 1.5-fold, 0.00024 s⁻¹
- B10 — 3.7-fold higher, 0.0013 s⁻¹

Point of comparison: B8, kon 570000 M⁻¹ s⁻¹. Against it:
- B4 — 5.2-fold lower, 110000 M⁻¹ s⁻¹
- B5 — 1.5-fold lower, 380000 M⁻¹ s⁻¹
- B9 — within 1.5-fold, 460000 M⁻¹ s⁻¹
- B10 — 3.6-fold lower, 160000 M⁻¹ s⁻¹

Biological target: T1, hRSV FTM-NN (membrane anchorless form …)
Experiment: ELISA on immobilized FTM-NN, periplasmic extract 1:10

Point of comparison: B1, “Binding Long 1:10 PE (Fold blanc)” value 3.1 fold blanc. Against it:
- B2 — lower, 2.7 fold blanc
- B3 — higher, 3.7 fold blanc
- B4 — higher, 3.7 fold blanc
- B5 — higher, 3.8 fold blanc
- B6 — higher, 4 fold blanc
- B7 — lower, 3 fold blanc
- B8 — lower, 2.9 fold blanc
- B9 — higher, 3.5 fold blanc
- B11 — higher, 4.2 fold blanc
- B13 — lower, 3 fold blanc
- B14 — higher, 3.7 fold blanc
- B15 — lower, 2.7 fold blanc
- B10 — higher, 3.4 fold blanc
